Substitutions are numbered along the chain they refer to.
Tests used:
[1] = target: T1, human BCMA expressed on the cell surface (human, UniProt Q02223 1-184); test: flow cytometry, 10 nM antibody on H929 cells
T1 construct: The same molecule is used here for hBCMA-CHO GS cells and for the endogenous BCMA of the myeloma lines; also called Human BCMA CHO-S cell; H929
T1 sequence: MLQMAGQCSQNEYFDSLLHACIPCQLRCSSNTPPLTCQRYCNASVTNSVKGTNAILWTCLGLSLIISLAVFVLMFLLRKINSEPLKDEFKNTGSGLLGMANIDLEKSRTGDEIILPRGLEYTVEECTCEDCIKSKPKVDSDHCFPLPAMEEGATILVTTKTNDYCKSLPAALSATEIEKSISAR

[2] = target: T1, human BCMA expressed on the cell surface; test: flow cytometry, 10 nM antibody on human BCMA CHO-S cells
[3] = target: T2, Cynomolgus monkey BCMA-Fc (cynomolgus monkey, UniProt A0A2K5UD97 1-53); test: BLI (ForteBio Octet), IgG captured on AHC probe, antigen in solution, avid
T2 construct: also called BCMA from cynomolgus monkey (mobile phase); not shown: Fc part
T2 sequence (A0A2K5UD97 entry or part of it): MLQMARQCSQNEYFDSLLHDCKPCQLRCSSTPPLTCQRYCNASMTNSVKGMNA

[4] = target: T3, Mouse BCMA-Fc (mouse, UniProt O88472 1-49, limits assumed); test: as above
T3 construct: also called BCMA from mouse (mobile phase); not shown: Fc part

[5] = target: T1, human BCMA expressed on the cell surface; test: flow cytometry, 10 nM antibody on human BCMA CHO-S cells against CHO-S cells
[6] = target: T4, Human BCMA-IHM (human, UniProt Q02223 1-54); test: BLI (ForteBio Octet), IgG captured on AHC probe, antigen in solution, monovalent
T4 construct: also called BCMA from human (mobile phase); not shown: 'IHM' is not explained; it may be a tag
T4 sequence (looked up): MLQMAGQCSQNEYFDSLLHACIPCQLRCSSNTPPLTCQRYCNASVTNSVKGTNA

[7] = target: T5, Human BCMA monomer (human, UniProt Q02223 1-54, limits assumed); test: as above
T5 construct: also called BCMA from human (mobile phase)
T5 sequence (looked up): T4 sequence (looked up)

[8] = target: T1, human BCMA expressed on the cell surface; test: flow cytometry on AMO1 cells
[9] = target: T1, human BCMA expressed on the cell surface; test: flow cytometry on H929 cells
[10] = target: T1, human BCMA expressed on the cell surface; test: flow cytometry on L363 cells
[11] = target: T1, human BCMA expressed on the cell surface; test: flow cytometry on U266 cells
[12] = target: T1, human BCMA expressed on the cell surface; test: flow cytometry on MM.1s cells
[13] = target: T1, human BCMA expressed on the cell surface; test: flow cytometry on RPMI8226 cells
[14] = target: T1, human BCMA expressed on the cell surface; test: flow cytometry on hBCMA-CHO-GS cells
[15] = target: T6, mouse BCMA expressed on CHO GS cells (mouse, UniProt O88472 1-185); test: flow cytometry on mBCMA-CHO-GS cells
T6 construct: whole, on cells; also called mBCMA-CHO GS; mBCMA-CHO-GS
T6 sequence (looked up): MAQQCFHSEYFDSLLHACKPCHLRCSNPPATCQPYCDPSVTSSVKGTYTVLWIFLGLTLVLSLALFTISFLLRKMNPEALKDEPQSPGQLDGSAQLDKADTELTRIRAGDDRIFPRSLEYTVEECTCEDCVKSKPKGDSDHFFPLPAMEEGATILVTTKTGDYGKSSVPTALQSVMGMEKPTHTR

[16] = target: T7, cynomolgus monkey BCMA expressed on CHO GS cells (cynomolgus monkey, UniProt A0A2K5UD97 1-183); test: flow cytometry on cynoBCMA-CHO-GS cells
T7 construct: whole, on cells; also called cynoBCMA-CHO GS; cynoBCMA-CHO-GS
T7 sequence (A0A2K5UD97 entry or part of it): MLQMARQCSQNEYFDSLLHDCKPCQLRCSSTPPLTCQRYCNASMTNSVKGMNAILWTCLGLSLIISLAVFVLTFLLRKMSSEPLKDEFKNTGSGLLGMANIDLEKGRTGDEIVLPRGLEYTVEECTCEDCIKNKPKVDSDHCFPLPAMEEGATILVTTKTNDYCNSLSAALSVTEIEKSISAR

[17] = target: T8, recombinant human BCMA protein (human, UniProt Q02223 1-54, limits assumed); test: SPR (Biacore T200), antibody captured by anti-human Fc on CM5 chip, antigen 1.25-40 nM, 1:1 model
T8 construct: The construct is not described
T8 sequence (looked up): T4 sequence (looked up)

[18] = target: T9, recombinant cynomolgus monkey BCMA protein (cynomolgus monkey, UniProt A0A2K5UD97 1-53); test: as above
T9 construct: The construct is not described

[19] = target: T10, recombinant mouse BCMA protein (mouse, UniProt O88472 1-49, limits assumed); test: as above
T10 construct: The construct is not described
T10 chain (looked up): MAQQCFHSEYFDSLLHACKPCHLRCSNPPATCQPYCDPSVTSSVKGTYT

[20] = target: T11, recombinant rat BCMA protein (rat); test: as above
T11 construct: The construct is not described

B1: anti-BCMA parent antibody ADI-34861 (antibody, V domains shown)
VH: QLQLQESGPGLVKPSETLSLTCTVSGGSISSSSYYWGWIRQPPGKGLEWIGSISYSGSTYYNPSLKSRVTISVDTSKNQFSLKLSSVTAADTAVYYCARDRGDTILDVWGQGTMVTVSS
VL: DIQMTQSPSSLSASVGDRVTITCRASQSISRYLNWYQQKPGKAPKLLIYAASSLQSGVPSRFSGSGSGTDFTLTISSLQPEDFATYYCQQKYFDITFGGGTKVEIK
notes: Tested as IgG (captured by anti-human Fc probe)
- FON, Fold Over Negative [1]: 6 fold
- MFI [1]: 1400
- MFI [2]: 1000
- Kd [3]: 2.11 nM
- Kd [4]: 3.68 nM
- FOB, Fold Over Background [5]: 4 fold
- Kd [6]: 51.4 nM
- Kd [7]: 17.3 nM

B2: antibody ADI-38491 (antibody, V domains shown)
VH: B1 VH with S30V, G37T, Y55I, S56A
VL: B1 VL
- FON, Fold Over Negative [1]: 5 fold
- MFI [1]: 1100
- MFI [2]: 996
- Kd [3]: 1.27 nM
- Kd [4]: 3.04 nM
- FOB, Fold Over Background [5]: 4 fold
- Kd [6]: 2.62 nM
- Kd [7]: 1.02 nM

B3: antibody ADI-38497 (antibody, V domains shown)
VH: B1 VH with S30V, G37T, Y55I, S56A, T104Q, G110S
VL: B1 VL
- FON, Fold Over Negative [1]: 26 fold
- MFI [1]: 5670
- MFI [2]: 2320
- Kd [3]: 0.602 nM
- Kd [4]: 0.503 nM
- FOB, Fold Over Background [5]: 8 fold
- Kd [6]: 1.02 nM
- Kd [7]: 0.621 nM

B4: ADI-38497 PG antibody (antibody, V domains shown)
VH: B1 VH with S30V, G37T, Y55I, S56A, T104Q, G110S
VL: DIQMTQSPSSLSASVGDRVTITCRASQSISRYLNWYQQKPGKAPKLLIYAASSLQSGVPSRFSGSGSGTDFTLTISSLQPEDFATYYCQQKYFDITFGGGTKVEIKR
notes: Expressed in HEK293 cells
- EC50 [8]: 2.43 nM
- EC50 [9]: ~1.71 nM
- EC50 [10]: 5.11 nM
- EC50 [11]: 1.79 nM
- EC50 [12]: 1.01 nM
- EC50 [13]: 2.12 nM
- EC50 [14]: 1.49 nM
- EC50 [15]: 1.18 nM
- EC50 [16]: 1.69 nM
- Kd [17]: 0.061 nM
- koff [17]: 1.76e-05 s⁻¹
- kon [17]: 288000 M⁻¹ s⁻¹
- Kd [18]: 0.0301 nM
- koff [18]: 1.03e-05 s⁻¹
- kon [18]: 340000 M⁻¹ s⁻¹
- Kd [19]: 1.77 nM
- koff [19]: 0.000872 s⁻¹
- kon [19]: 492000 M⁻¹ s⁻¹
- Kd [20]: 83.1 nM
- koff [20]: 0.0831 s⁻¹
- kon [20]: 1e+06 M⁻¹ s⁻¹

B5: ADI-38484 PG antibody (antibody, human IgG1, kappa, V domains shown)
VH: QVQLVQSGAEVKKPGSSVKVSCKASGGTFSNDVISWVRQAPGQGLEWMGVIIPIFGIANYAQKFQGRVTITADESTSTAYMELSSLRSEDTAVYYCARGRGYYSSWLHDIWGQGTMVTVSS
VL: DIQMTQSPSSLSASVGDRVTITCQASQDITNYLNWYQQKPGKAPKLLIYDASNLETGVPSRFSGSGSGTDFTFTISSLQPEDIATYYCQQAFDLITFGGGTKVEIKR
notes: Expressed in HEK293 cells
- EC50 [8]: 4.25 nM
- EC50 [9]: ~1.55 nM
- EC50 [10]: 0.934 nM
- EC50 [11]: 2.79 nM
- EC50 [12]: 1.95 nM
- EC50 [13]: 0.428 nM

B6: anti-BCMA parent antibody ADI-34857 (antibody, V domains shown)
VH: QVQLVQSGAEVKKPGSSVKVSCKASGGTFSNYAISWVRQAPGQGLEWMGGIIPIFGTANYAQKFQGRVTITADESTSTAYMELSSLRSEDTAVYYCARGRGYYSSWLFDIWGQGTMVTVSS
VL: DIQMTQSPSSLSASVGDRVTITCQASQDITNYLNWYQQKPGKAPKLLIYDASNLETGVPSRFSGSGSGTDFTFTISSLQPEDIATYYCQQAFDLITFGGGTKVEIK
notes: as for B1
- FON, Fold Over Negative [1]: 10 fold
- MFI [1]: 2280
- MFI [2]: 877
- Kd [3]: 1.47 nM
- FOB, Fold Over Background [5]: 3 fold
- Kd [6]: 44 nM
- Kd [7]: 35.9 nM

B7: antibody ADI-38481 (antibody, V domains shown)
VH: B5 VH with H108L
VL: B6 VL
- FON, Fold Over Negative [1]: 31 fold
- MFI [1]: 6660
- MFI [2]: 2620
- Kd [3]: 0.897 nM
- Kd [4]: 2.44 nM
- FOB, Fold Over Background [5]: 10 fold
- Kd [6]: 0.496 nM
- Kd [7]: 0.1 nM

B8: antibody ADI-38484 (antibody, V domains shown)
VH: B5 VH
VL: B6 VL
- FON, Fold Over Negative [1]: 35 fold
- MFI [1]: 7720
- MFI [2]: 2720
- Kd [3]: 1.07 nM
- Kd [4]: 0.85 nM
- FOB, Fold Over Background [5]: 11 fold
- Kd [6]: 0.539 nM
- Kd [7]: 0.0794 nM

Reference: patent US20250034268A1 (Innovent, published 2025)
